The data set in a line: protein stability index of a GFP-peptide fusion (GPS, HEK-293T) (PSI 1-6); higher = more stable.
Where [1] appears, read: treatment: DMSO, c terminus: a fixed tail appended.
The mark [2] stands for this setting: treatment: MLN4924 1 uM, 8 h, c terminus: a fixed tail appended.
The mark [3] stands for this setting: treatment: DMSO, c terminus: native.
The mark [4] stands for this setting: treatment: MLN4924 1 uM, 8 h, c terminus: native.

± gives the standard deviation.
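Further: 24-mer peptide tiles fused after GFP, lentivirally expressed, FACS-sorted into six equal bins by GFP/DsRed ratio, decoded by Illumina sequencing, PSI is the read-weighted mean bin number.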

Consider PSPPPGSHYTSPSENMWNTGSTYN [CARM1], for which the protein stability index runs as follows: under setting [1], 3.8 ± 0.43; under setting [2], 3.81 ± 0.23.

As for PSWNGSLKQLLTETDVWFSKQRKD [GMCL1], the protein stability index runs as follows: under setting [1], 3.27 ± 0.049; under setting [2], 3.29 ± 0.43.

PTICMAYLMKTKQFRLKEAFDYIK [DUSP5]: the protein stability index by setting is: under setting [1], 2.27 ± 0.47; under setting [2], 2.54 ± 0.31.

Regarding PTTGYRRLLRFSSQIHNNGQSDFR [LOXL2], the protein stability index under setting [1] was 3.03 ± 0.37 and the protein stability index under setting [2] turned out to be 3.22 ± 0.31.

For the sequence PVAAATAAEGEGSPPAVAAVAGPP [ANKRD17], the protein stability index by setting is: under setting [1], 5.54 ± 0.19; under setting [2], 5.54 ± 0.094.

PVEEPEPKPDRLLVLKVLWNDFLM [SLC19A2]: the protein stability index stood at 2.21 ± 0.2 under setting [1] and 2.17 ± 0.19 under setting [2].

With PVELYTAFQHTPTSITLTASRVSK [KMT2E], the protein stability index is 3.63 ± 0.095 under setting [1] and 3.71 ± 0.13 under setting [2].

For the sequence PVSKPGALRRSLSRSMSQEAQRG [TCAP], the protein stability index turned out to be 3.19 ± 0.23 under setting [3] and 3.2 ± 0.37 under setting [4].

For the sequence PWKEETFLVLQSLLERQVEMTPEK [FANCE], the protein stability index came to 3 ± 0.22 under setting [1] and 3.08 ± 0.27 under setting [2].

As to QAGGEGAGGELGISLNMCLLGALV [PBXIP1], the protein stability index is, setting by setting: under setting [1], 2.92 ± 0.65; under setting [2], 2.23 ± 0.33.

Take QALRQMNEGAIDCVNYEGQSAYDV [DLC1]: the protein stability index was 4.41 ± 0.22 under setting [1] and 4.39 ± 0.1 under setting [2].

For QDGVSCLNIVERYDPKENKWTRVA [KLHL20], the protein stability index reads like this: under setting [1], 3.98 ± 0.28; under setting [2], 4.08 ± 0.21.

QDSPGPHEALSRLWELCHLWLRPE [ZNF396]: the protein stability index by setting is: under setting [1], 2.33 ± 0.14; under setting [2], 2.15 ± 0.079.

As for QFSLMLCAFVGALGGAAFLGTAIF [SPNS1], the protein stability index under setting [1] turned out to be 2.81 ± 0.47 and the protein stability index under setting [2] amounted to 2.47 ± 0.41.

For QHLKYKEHPEALSCLLLQLRREKP [INTS3], the protein stability index stood at 2.68 ± 0.16 under setting [1] and 3 ± 0.32 under setting [2].

In the case of QILLEWCRSKTLGYQHVDLQNFSS [SMTNL2], the protein stability index is, setting by setting: under setting [1], 2.72 ± 0.56; under setting [2], 2.49 ± 0.43.

For QIQRISLNTLTLNVKSEKVYTRHG [FLOT1], the protein stability index by setting is: under setting [1], 2.6 ± 0.14; under setting [2], 3.01 ± 0.25.

Turning to QKDLIMKVENLTLKNHFQSVLEQL [TAF7L], the protein stability index is, setting by setting: under setting [1], 2.66 ± 0.2; under setting [2], 2.4 ± 0.29.

Turning to QKITAIITFPSLESCEEKNQLILT [WDR41], the protein stability index under setting [1] worked out at 2.29 ± 0.16 and the protein stability index under setting [2] is 2.22 ± 0.26.

QKRQQLSEDTLTIHGLPTEGYQAL [C22orf31] showed a protein stability index under setting [1] of 3.91 ± 0.12 and a protein stability index under setting [2] of 3.92 ± 0.096.

For the sequence QKVATLEKRNRQLRERVKKVKRSL [CCDC3], the protein stability index amounted to 4.08 ± 0.2 under setting [1] and 4.89 ± 0.11 under setting [2].

Regarding QLDIASQSLDQEILLKVKTEIEEE [BCL2L13], the protein stability index came to 5.21 ± 0.37 under setting [1] and 5.09 ± 0.21 under setting [2].

For the sequence QLLSERFGRGSRTVDLELELQIEL [ARFIP2], the protein stability index by setting is: under setting [1], 2.58 ± 0.46; under setting [2], 2.99 ± 0.94.

Regarding QLQVESNSSQLLLRRHAGLLDGLA [SCARA5], the protein stability index by setting is: under setting [1], 2.68 ± 0.26; under setting [2], 2.9 ± 0.17.

For the sequence QLSPSPTPASQSPKKPPAKDPLAD [SNAP91], the protein stability index under setting [1] turned out to be 5.49 ± 0.26 and the protein stability index under setting [2] worked out at 5.53 ± 0.29.

QLSRDSTLGGKAFHITNDEPIPFW [NSDHL] displayed a protein stability index under setting [1] of 2.89 ± 0.18 and a protein stability index under setting [2] of 3.07 ± 0.55.

QLTKASLKPRGCSKPPWRPPGGKL [SPACA9]: the protein stability index by setting is: under setting [1], 2.83 ± 0.29; under setting [2], 2.92 ± 0.079.

For the sequence QLTKELPLSPAFFGEDGIFRHDRL [PBXIP1], the protein stability index reads like this: under setting [1], 3.07 ± 0.19; under setting [2], 3.01 ± 0.33.

Consider QNPPVIKSSGRFLWIKFFAAGELE [NETO1], for which the protein stability index is, setting by setting: under setting [1], 2.57 ± 0.53; under setting [2], 2.11 ± 0.19.

For QPGLLHLQSCGDLHTFTPAGRPRA [FAM189A2], the protein stability index runs as follows: under setting [1], 5.66 ± 0.44; under setting [2], 5.53 ± 0.18.

As for QPILQIDNARLAADDFRTKYEHEL [KRT16], the protein stability index was 4.6 ± 0.2 under setting [1] and 4.31 ± 0.45 under setting [2].

As to QPKCDNTARAHPAKARDLYKGRQL [SMOC2], the protein stability index is, setting by setting: under setting [1], 4.26 ± 0.17; under setting [2], 4.35 ± 0.19.

QPLADEGPPGRSIGGAAPSLGALD [SERTAD1]: the protein stability index under setting [1] stood at 5.19 ± 0.24 and the protein stability index under setting [2] turned out to be 5.32 ± 0.15.

Take QPQDRNQALGTHRPVNKLAELQCE [RASAL3]: the protein stability index is, setting by setting: under setting [1], 4.77 ± 0.37; under setting [2], 4.88 ± 0.25.

On to QQAALPRLSRRMASQHSYPLNRFS [CBY2], for which the protein stability index is 3.38 ± 0.31 under setting [1] and 3.45 ± 0.31 under setting [2].

As to QQKKDLEILHQQNIHQLQNRLSEL [SASS6], the protein stability index amounted to 3.96 ± 0.21 under setting [1] and 4.13 ± 0.2 under setting [2].

Turning to QQQHVSCQVFPERLAQGNPQQGFF [ATP23], the protein stability index is 3.5 ± 0.34 under setting [1] and 3.28 ± 0.39 under setting [2].

QQTPVGTPKDKRVSNTPLRTVDGS [PALM] yielded a protein stability index under setting [1] of 5.07 ± 0.13 and a protein stability index under setting [2] of 5.03 ± 0.15.

QQVCQWLLWATNEFSLVNVNLQRF [ETS2]: the protein stability index by setting is: under setting [1], 3.01 ± 0.23; under setting [2], 2.94 ± 0.42.

As to QRELEIPEQQVDMHDMLLEELAPV [ZNF449], the protein stability index stood at 5.22 ± 0.26 under setting [1] and 5.12 ± 0.21 under setting [2].

Take QRIHAAERLCMGVDCTEIFGGNPR [ZNF263]: the protein stability index was found to be 3.36 ± 0.27 under setting [1] and 3.38 ± 0.31 under setting [2].

QRINTYVFVGNQLIPQPLDSEEDE [PCMTD1]: the protein stability index is, setting by setting: under setting [1], 4.32 ± 0.25; under setting [2], 4.37 ± 0.15.

Turning to QRITKQLEKWMQKNVEENLYSSSL [GLT8D2], the protein stability index is, setting by setting: under setting [1], 2.89 ± 0.28; under setting [2], 3.03 ± 0.21.

Consider QRMRVPEKLKVAPPNADLEQGFQE [MFF], for which the protein stability index is, setting by setting: under setting [1], 4.82 ± 0.19; under setting [2], 4.74 ± 0.092.

QSPGQPVQGGSEAWGPGTLAAAPE [TEX19]: the protein stability index is 5.08 ± 0.37 under setting [1] and 5.11 ± 0.24 under setting [2].

Turning to QSSNLFRHQRRHNAEKLLNVVKV [ZNF24], the protein stability index runs as follows: under setting [3], 1.84 ± 0.38; under setting [4], 2.11 ± 0.26.

For QTLDKKLMSDLRRKRTAHERAKEL [INTS4], the protein stability index came to 4.22 ± 0.27 under setting [1] and 4.26 ± 0.25 under setting [2].

With QVAMRCRCSSMHFLVAEWNEPSIN [SAT1], the protein stability index is 2.23 ± 0.53 under setting [1] and 2.27 ± 0.2 under setting [2].

On to QVLIKHSADVNARDKNWQTPLHVA [ANKRD44], for which the protein stability index reads like this: under setting [1], 3.15 ± 0.34; under setting [2], 3.01 ± 0.32.

As for QWGAEPEGSCYQTFRQYCGAACTC [RNF208], the protein stability index under setting [1] is 3 ± 0.47 and the protein stability index under setting [2] was determined as 3.06 ± 0.34.

Consider RAFVSIQEEMAEDPLTYKSRLMVV [RHOBTB2], for which the protein stability index under setting [1] worked out at 2.74 ± 0.39 and the protein stability index under setting [2] was 2.18 ± 0.4.

In the case of RALKFRERDALEAVFRFWAGGEKG [DNAAF3], the protein stability index is, setting by setting: under setting [1], 2.32 ± 0.07; under setting [2], 2.59 ± 0.43.

RARLDSMVLLIMKLDQLDQDIENA [DLC1]: the protein stability index by setting is: under setting [1], 2.47 ± 0.22; under setting [2], 2.4 ± 0.39.

Regarding RATNHLDQVPSMQDGSESFFFRHG [SPAG8], the protein stability index is 3.51 ± 0.1 under setting [1] and 3.62 ± 0.28 under setting [2].

As to RCACAASSDESPGSKCSPEDLATA [TTC32], the protein stability index runs as follows: under setting [1], 3.83 ± 0.49; under setting [2], 4.08 ± 0.23.

Turning to RCPSSSLHMSQRERTWPPPAMSPY [C22orf15], the protein stability index runs as follows: under setting [1], 2.89 ± 0.3; under setting [2], 2.9 ± 0.27.

Consider RCSSMHFLVAEWNEPSINFYKRRG [SAT1], for which the protein stability index came out at 2.86 ± 0.33 under setting [1] and 2.42 ± 0.28 under setting [2].

As to RDVVLCSLLNFLPEGVNKLKISPV [TENT5C], the protein stability index reads like this: under setting [1], 2.2 ± 0.44; under setting [2], 2.02 ± 0.43.

As to REEEKTFWKKYRTFWKEDKAFWKE [CCDC70], the protein stability index reads like this: under setting [1], 2.57 ± 0.2; under setting [2], 2.75 ± 0.22.

Take RELGVWRSLLRLRATRAGAAEEPG [C2CD2L]: the protein stability index under setting [1] stood at 3.15 ± 0.24 and the protein stability index under setting [2] came out at 3.27 ± 0.33.

RELKAKLSGVEEELQRTKQEVLSL [SASS6] returned a protein stability index under setting [1] of 4.47 ± 0.41 and a protein stability index under setting [2] of 4.46 ± 0.22.

On to RFEEPKGPPARQEDSKELRALRKM [CBY2], for which the protein stability index runs as follows: under setting [1], 4.91 ± 0.43; under setting [2], 4.99 ± 0.2.

On to RFFLGDLCSRQDLYPALKGVNTVF [NSDHL], for which the protein stability index stood at 2.19 ± 0.26 under setting [1] and 2.14 ± 0.54 under setting [2].

On to RFGVRPKVTGYLISYSSMLGAVAG [MFSD9], for which the protein stability index was 2.58 ± 0.54 under setting [1] and 2.29 ± 0.31 under setting [2].

On to RFQAMEETHLRHMKALLGSYAHSV [FCHO1], for which the protein stability index came to 2.38 ± 0.37 under setting [1] and 2.38 ± 0.31 under setting [2].

As to RGDSVKVENPSTASHSLSPSEHVQ [ZNF649], the protein stability index turned out to be 5.08 ± 0.37 under setting [1] and 5.19 ± 0.6 under setting [2].

Turning to RGRASGFAGSMFGSVALGPVCPTV [KRT71], the protein stability index turned out to be 2.7 ± 0.14 under setting [1] and 2.88 ± 0.28 under setting [2].

Consider RIHSGEKPYECNECGKAFSQSSYL [ZNF232], for which the protein stability index turned out to be 2.85 ± 0.068 under setting [1] and 3.1 ± 0.35 under setting [2].

Sequence RITQYLDAGGIPRTAQSEETRVWH [CAMK2A] yielded a protein stability index under setting [1] of 3.03 ± 0.29 and a protein stability index under setting [2] of 3.24 ± 0.39.

As to RIVKIWDMTPVVGCSLATGFSPH [WDFY1], the protein stability index reads like this: under setting [3], 2.05 ± 0.28; under setting [4], 2.34 ± 0.32.

Regarding RKDPYGKPVDMWACGVILYILLVG [CAMK2D], the protein stability index runs as follows: under setting [1], 2.53 ± 0.12; under setting [2], 3.04 ± 1.1.

Consider RKPAAGAQSAGTQQVAAVSSVSPA [BRD3], for which the protein stability index was found to be 4.82 ± 0.12 under setting [1] and 4.86 ± 0.16 under setting [2].
